This note sets out measurements from PMC3524116.

The target in this assay is Recombinant His6-tagged UVI31+ protein from C. reinhardtii (C. reinhardtii). Nature of the assay: SEC; gel filtration on a Sephadex G75 column in 50 mM sodium phosphate (pH 7.6), 50 mM NaCl; major peak at 87 ml (monomer), small hump at 68-75 ml (dimer). A general note: In gel filtration, larger molecules generally elute earlier.

Consider “Recombinant His6-tagged UVI31+ protein from C. reinhardtii (natural protein)”, for which the stoichiometry N (commonly a count of units in the complex or per binding partner) stood at 2.
